Data set [1] can be described thus: Analytical size exclusion chromatography (aggregation state, percent monomer). It counts as physicochemical. Particulars: NEM-conjugated cysteine variants; SEC, Abs280. The protocol: Size exclusion chromatography was used to determine the aggregation state of the FN3 domains binding EGFR. Aliquots (10 μL) of each purified FN3 domain were injected onto a Superdex 75 5/150 column (GE Healthcare) at a flow rate of 0.3 mL/min in a mobile phase of PBS pH 7.4. Elution from the column was monitored by absorbance at 280 nm.
The percent monomer for each protein was determined by integrating the Abs280 signal and comparing the peak in the monomer region (5.5-6 minutes) to the peaks in the oligomer region (4-5.3 minutes).
In general terms: SEC sorts molecules by how far they enter the pores of the column.

The next data set deals with H1573 cells. Nature of the data set: Cytotoxicity assay of cytotoxin conjugates in H1573 cells. In kind it is cell-based, human. Particulars: MMAF conjugates; for IC50: Cell TiterGlo at 70 hours, read-out: IC50 (cell killing). As for the experimental part: Cell killing was assessed by measuring viability of the EGFR-overexpressing human tumor cell line H1573 following exposure to the cysteine variant-cytotoxin conjugates. […] Cells were allowed to attach overnight at 37° C. in a humidified 5% CO2 atmosphere. Medium was aspirated from 96-well plate and cells were treated with 50 uL of fresh media and 50 uL of 2× inhibitor made up in fresh media. Cell viability was determined by an endpoint assay with Cell TiterGlo (Promega) at 70 hours. IC50 values were determined by fitting data to the equation for a sigmoidal dose response with variable slope using GraphPad Prism 5 (GraphPad Software).
Conjugates consisting of ECB147 cysteine variants, 83v2-cys, or Tencon-cys linked to a cytotoxic tubulin inhibitor from the auristatin family (FIG. 2) were tested for target-dependent cytotoxicity in cancer cells. The inhibitor was linked to the cysteine-containing protein via a non-cleavable PEG4 linker or an enzyme-cleavable valine-citrulline or valine-lysine linker.
For orientation: In ATP-based viability assays light output follows the ATP content of the culture.

A short description of data set [2]: Thermal stability by differential scanning calorimetry. It counts as physicochemical. Particulars: for First Scan Tm / Second Scan Tm: cysteine-NEM conjugates; for First Scan Tm: DSC 25-100° C., 1° C. per minute; for Second Scan Tm: second identical scan; for Thermal Stability (Tm, C.): c-Met-binding FN3 domains, DSC in PBS. The protocol:
The thermal stability of cysteine-NEM conjugates was assessed by differential scanning calorimetry (DSC). The only the conjugates tested were those determined to express at high levels, conjugate efficiently, and retain EGFR binding. Additionally, cysteine variants within the BC and FG loops were excluded. Stability data was generated by heating a 400 μL aliquot of the variant from 25° C. to 100° C. at a scan rate of 1° C. per minute in a VP-DSC instrument (MicroCal). A second identical scan was completed on the sample in order to assess the reversibility of thermal folding/unfolding. Data was fitted to a 2-state unfolding model in order to calculate the melting temperature (Table 10).
Thermal Stability of c-Met-Binding FN3 Domains Differential scanning calorimetry in PBS was used to assess the stability of each FN3 domain.
(Differential scanning calorimetry records heat flow against a reference as temperature is scanned.)

B1: N6C (protein)
chain: LPAPKCLVVSEVTEDSARLSWDDPWAFYESFLIQYQESEKVGEAIVLTVPGSERSYDLTGLKPGTEYTVSIYGVHNVYKDTNMRGLPLSAIFTT
In data set [1], B1 had a Percent monomer of 94%. For the same molecule, in the data set on H1573 cells, the “IC50 relative to parent conjugate” value is on record as “over two times more potent than the parent” and the IC50 (as a rule, the concentration that gives 50% inhibition) was 0.16 nM. Moreover, in data set [2], the “First Scan Tm” value stood at 71 °C and the “Second Scan Tm” value stood at 70 °C.

B2: V8C (protein)
chain 1: MLPAPKNLCVSEVTEDSARLSWDDPWAFYESFLIQYQESEKVGEAIVLTVPGSERSYDLTGLKPGTEYTVSIYGVHNVYKDTNMRGLPLSAIFTT
chain 2: LPAPKNLCVSEVTEDSARLSWDDPWAFYESFLIQYQESEKVGEAIVLTVPGSERSYDLTGLKPGTEYTVSIYGVHNVYKDTNMRGLPLSAIFTT
modifications: EGFR binding FN3 domain; EGFR-binding FN3 domain
On to B2, for which the Percent monomer in data set [1] is listed as 91%. For the same molecule, in the data set on H1573 cells, the IC50 was determined as 0.35 nM. Besides, in data set [2], the “First Scan Tm” value turned out to be 69 °C and the “Second Scan Tm” value is 69 °C.

B3: T93C (protein)
chain 1: MLPAPKNLVVSEVTEDSARLSWDDPWAFYESFLIQYQESEKVGEAIVLTVPGSERSYDLTGLKPGTEYTVSIYGVHNVYKDTNMRGLPLSAIFCT
chain 2: LPAPKNLVVSEVTEDSARLSWDDPWAFYESFLIQYQESEKVGEAIVLTVPGSERSYDLTGLKPGTEYTVSIYGVHNVYKDTNMRGLPLSAIFCT
modifications: EGFR binding FN3 domain; EGFR-binding FN3 domain
In data set [1], B3 registered a Percent monomer of 100%. In the data set on H1573 cells, the “IC50 relative to parent conjugate” value is “over two times more potent than the parent” and the 50% inhibitory concentration (IC50) was 0.2 nM. Besides, in data set [2], the “First Scan Tm” value came to 69 °C and the “Second Scan Tm” value worked out at 69 °C.

B4: S10C (protein)
chain 1: MLPAPKNLVVCEVTEDSARLSWDDPWAFYESFLIQYQESEKVGEAIVLTVPGSERSYDLTGLKPGTEYTVSIYGVHNVYKDTNMRGLPLSAIFTT
chain 2: LPAPKNLVVCEVTEDSARLSWDDPWAFYESFLIQYQESEKVGEAIVLTVPGSERSYDLTGLKPGTEYTVSIYGVHNVYKDTNMRGLPLSAIFTT
modifications: EGFR binding FN3 domain; EGFR-binding FN3 domain
In turn, B4 returned a Percent monomer in data set [1] of 80%. The half-maximal inhibitory concentration (IC50) in the data set on H1573 cells is 0.43 nM. Also, in data set [2], the “First Scan Tm” value turned out to be 68 °C and the “Second Scan Tm” value turned out to be 68 °C.

B5: S16C (protein)
chain 1: MLPAPKNLVVSEVTEDCARLSWDDPWAFYESFLIQYQESEKVGEAIVLTVPGSERSYDLTGLKPGTEYTVSIYGVHNVYKDTNMRGLPLSAIFTT
chain 2: LPAPKNLVVSEVTEDCARLSWDDPWAFYESFLIQYQESEKVGEAIVLTVPGSERSYDLTGLKPGTEYTVSIYGVHNVYKDTNMRGLPLSAIFTT
modifications: EGFR binding FN3 domain; EGFR-binding FN3 domain
B5 gave a Percent monomer in data set [1] of 75%. Besides, in the data set on H1573 cells, the IC50 was 0.75 nM. In data set [2], the “First Scan Tm” value is 68 °C and the “Second Scan Tm” value was 68 °C.

B6: P114AR7P92-G8: c-Met-binding FN3 domain, SEQ ID NO: 36 (protein)
chain: LPAPKNLVVSRVTEDSARLSWTAPDAAFDSFVIRYFEFLGSGEAIVLTVPGSERSYDLTGLKPGTEYVVQILGVKGGYISIPLSAIFTT
modifications: c-Met binding FN3 domain
For B6, in data set [2], the “Thermal Stability (Tm, C.)” value worked out at 90.9 C.

B7: P114AR7P93-G8: c-Met-binding FN3 domain, SEQ ID NO: 39 (protein)
chain: LPAPKNLVVSRVTEDSARLSWTAPDAAFDSFWIRYFEFLGSGEAIVLTVPGSERSYDLTDLKPGTEYGVTINGVKGGRVSTPLSAIFTT
modifications: c-Met binding FN3 domain
Take B7: in data set [2], the “Thermal Stability (Tm, C.)” value is reported as 76.8 C.

B8: P114AR5P74-A5: c-Met-binding FN3 domain, SEQ ID NO: 32 (protein)
chain: LPAPKNLVVSRVTEDSARLSWTAPDAAFDSFWIRYDEVVVGGEAIVLTVPGSERSYDLTGLKPGTEYYVNILGVKGGSISVPLSAIFTT
modifications: c-Met binding FN3 domain
Consider B8, for which the “Thermal Stability (Tm, C.)” value in data set [2] was determined as 74.1 C.

B9: P114AR7P92-H5: c-Met-binding FN3 domain, SEQ ID NO: 37 (protein)
chain: LPAPKNLVVSRVTEDSARLSWTAPDAAFDSFWIRYLEFLLGGEAIVLTVPGSERSYDLTGLKPGTEYVVQIMGVKGGTVSPPLSAIFTT
modifications: c-Met binding FN3 domain
B9: the “Thermal Stability (Tm, C.)” value in data set [2] was determined as 87 C.

B10: P114AR7P95-F10: c-Met-binding FN3 domain, SEQ ID NO: 47 (protein)
chain: LPAPKNLVVSRVTEDSARLSWTAPDAAFDSFWIRYFEFTTAGEAIVLTVPGSERSYDLTGLKPGTEYVVNIMGVKGGSISPPLSAIFTT
modifications: c-Met binding FN3 domain
B10: the “Thermal Stability (Tm, C.)” value in data set [2] is 85.2 C.

B11: P114AR7P95-H8: c-Met-binding FN3 domain, SEQ ID NO: 49 (protein)
chain: LPAPKNLVVSRVTEDSARLSWTAPDAAFDSFWIRYFEFVSKGEAIVLTVPGSERSYDLTGLKPGTEYVVNIMGVKGGSISPPLSAIFTT
modifications: c-Met binding FN3 domain
B11: in data set [2], the “Thermal Stability (Tm, C.)” value came out at 83 C.

B12: P114AR7P93-H9: c-Met-binding FN3 domain, SEQ ID NO: 40 (protein)
chain: LPAPKNLVVSRVTEDSARLSWTAPDAAFDSFWIRYFEFLGSGEAIVLTVPGSERSYDLTGLKPGTEYVVQIIGVKGGHISLPLSAIFTT
modifications: c-Met binding FN3 domain
For the molecule B12, the “Thermal Stability (Tm, C.)” value in data set [2] is on record as 88.2 C.

B13: P114AR7P95-D4: c-Met-binding FN3 domain, SEQ ID NO: 45 (protein)
chain: LPAPKNLVVSRVTEDSARLSWTAPDAAFDSFWIRYFEFLGSGEAIVLTVPGSERSYDLTGLKPGTEYVVQILGVKGGYISIPLSAIFTT
modifications: c-Met binding FN3 domain
Consider B13, for which the “Thermal Stability (Tm, C.)” value in data set [2] is given as 85.3 C.

B14: P114AR7P95-G7: c-Met-binding FN3 domain, SEQ ID NO: 48 (protein)
chain: LPAPKNLVVSRVTEDSARLSWTAPDAAFDSFWIRYFELLSTGEAIVLTVPGSERSYDLTGLKPGTEYVVNIMGVKGGSISPPLSAIFTT
modifications: c-Met binding FN3 domain
As for B14, in data set [2], the “Thermal Stability (Tm, C.)” value was 87.2 C.

B15: P114AR7P94-E5: c-Met-binding FN3 domain, SEQ ID NO: 42 (protein)
chain: LPAPKNLVVSRVTEDSARLSWTAPDAAFDSFWIRYFEFLGSGEAIVLTVPGSERSYDLTGLKPGTEYAVNIMGVKGGRVSVPLSAIFTT
modifications: c-Met binding FN3 domain
On to B15, for which, in data set [2], the “Thermal Stability (Tm, C.)” value amounted to 80 C.

B16: P114AR7P94-A3: c-Met-binding FN3 domain, SEQ ID NO: 41 (protein)
chain: LPAPKNLVVSRVTEDSARLSWTAPDAAFDSFWIRYFEFLGSGEAIVLTVPGSERSYDLTGLKPGTEYVVNIMGVKGGKISPPLSAIFTT
modifications: c-Met binding FN3 domain
Take B16: in data set [2], the “Thermal Stability (Tm, C.)” value is 86.2 C.

B17: P114AR7P92-F6: c-Met-binding FN3 domain, SEQ ID NO: 35 (protein)
chain: LPAPKNLVVSRVTEDSARLSWTAPDAAFDSFWIRYFEFLGSGEAIVLTVPGSERSYDLTGLKPGTEYVVNILGVKGGGLSVPLSAIFTT
modifications: c-Met binding FN3 domain
In the case of B17, the “Thermal Stability (Tm, C.)” value in data set [2] is recorded as 76.8 C.

B18: E53C (protein)
chain: MLPAPKNLVVSEVTEDSARLSWDDPWAFYESFLIQYQESEKVGEAIVLTVPGSCRSYDLTGLKPGTEYTVSIYGVHNVYKDTNMRGLPLSAIFTT
modifications: EGFR binding FN3 domain
For the molecule B18, the “IC50 relative to parent conjugate” value in the data set on H1573 cells was “over two times more potent than the parent”.

The values are drawn from patent publication US10662235B2, “Cysteine engineered fibronectin type III domain binding molecules” (Janssen Biotech, Inc., priority 2016, dated 2020).
